Experimental data: publication PMC5059718, “Leukocyte trafficking-associated vascular adhesion protein 1 is expressed and functionally active in atherosclerotic plaques” (Scientific Reports, 2016)
Bridge positions count the residues as written; N and C are the ends. Peptide text beside a SMILES is read from it. * marks the point of attachment. DOTA = O=C(O)CN1CCN(CC(=O)O)CCN(CC(=O)*)CCN(CC(=O)O)CC1; AEEA = NCCOCCOCC(=O)O

How the values were obtained:
VAP-1 [1] = target: T1, VAP-1 (Mus musculus, UniProt O70423); set-up: species or system mouse (LDLR−/−ApoB100/100; C57BL/6N); settings: in vivo
T1 construct: VAP-1 was expressed on endothelial cells lining inflamed atherosclerotic lesions; from tissue; host or cells: living mice (LDLR-/-ApoB100/100, Jackson strain #003000; C57BL/6N controls); aorta, atherosclerotic plaque endothelium, adipocytes
T1 sequence (O70423 1-765): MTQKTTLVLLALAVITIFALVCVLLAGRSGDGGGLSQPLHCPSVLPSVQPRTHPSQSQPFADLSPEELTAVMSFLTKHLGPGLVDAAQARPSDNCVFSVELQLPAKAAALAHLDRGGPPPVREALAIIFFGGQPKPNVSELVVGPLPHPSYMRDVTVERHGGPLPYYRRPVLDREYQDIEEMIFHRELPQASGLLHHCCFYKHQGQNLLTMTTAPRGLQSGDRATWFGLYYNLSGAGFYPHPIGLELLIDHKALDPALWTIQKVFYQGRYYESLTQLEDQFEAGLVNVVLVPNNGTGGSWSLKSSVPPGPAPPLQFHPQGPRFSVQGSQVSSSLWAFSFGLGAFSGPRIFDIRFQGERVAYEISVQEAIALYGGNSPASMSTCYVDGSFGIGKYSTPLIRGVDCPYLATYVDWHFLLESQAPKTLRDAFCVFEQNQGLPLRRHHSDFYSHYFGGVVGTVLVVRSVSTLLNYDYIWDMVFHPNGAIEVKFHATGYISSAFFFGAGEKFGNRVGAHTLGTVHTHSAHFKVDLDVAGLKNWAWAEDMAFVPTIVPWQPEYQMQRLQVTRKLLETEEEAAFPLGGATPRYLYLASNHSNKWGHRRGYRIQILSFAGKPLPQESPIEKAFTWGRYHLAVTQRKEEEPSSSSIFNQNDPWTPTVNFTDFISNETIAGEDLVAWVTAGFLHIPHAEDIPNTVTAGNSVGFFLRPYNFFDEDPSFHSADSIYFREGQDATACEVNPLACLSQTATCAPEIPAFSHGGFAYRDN
Description: Mice (n = 5) then received an injection of [^68Ga]DOTA-Siglec-9 (22 ± 9 MBq) and were then subjected to subsequent ex vivo biodistribution and autoradiography analyses.
The distribution of [^68Ga]DOTA-Siglec-9 in the aorta was examined in more detail using autoradiography, as described previously. Briefly, after gamma counting, excised aortas were frozen in isopentane, and sequential longitudinal cryosections (20 and 8 μm) were cut using a cryomicrotome at −15 °C. Sections were then thaw-mounted onto microscope slides. […]
The 20 μm sections were stained with hematoxylin and eosin and scanned with a Pannoramic 250 Flash slide scanner (3DHISTECH Ltd.), and morphology was examined using Pannoramic Viewer 1.15 software (3DHISTECH Ltd.). After carefully superimposing the autoradiographs and hematoxylin-eosin staining images, the concentration of ^68Ga-radioactivity was measured in the following ROI: 1) plaques (excluding media); 2) normal vessel wall (no lesion formation); and 3) adventitia (mainly adipose tissue around the aorta). The results were expressed as count densities (photostimulated luminescence per square millimeter; PSL/mm^2) using Tina 2.1 software (Raytest Isotopemessgeräte GmbH, Straubenhardt, Germany). […] In total, […] (417 in plaques, 478 in normal vessel walls, and 347 in adventitia) were analyzed in 27 atherosclerotic and 20 control mice. […]

VAP-1 [2] = test system: T2, VAP-1; experiment: in vivo; set-up: species or system mouse (LDLR−/−ApoB100/100; C57BL/6N); settings: total radioactivity
T2 construct: VAP-1 was expressed on endothelial cells lining inflamed atherosclerotic lesions; from tissue; host or cells: living mice (LDLR-/-ApoB100/100, Jackson strain #003000; C57BL/6N controls); aorta, atherosclerotic plaque endothelium, adipocytes
Description: (§1) Mice (LDLR^−/−ApoB^100/100, n = 22; C57BL/6N, n = 20) under isoflurane anesthesia were i.v. injected with [^68Ga]DOTA-Siglec-9 (19 ± 5 MBq). […] The thoracic aorta was excised and rinsed in saline to remove blood. Aorta, blood, heart, and femoral muscle were weighed, and radioactivity was measured in a gamma counter (Triathler 3″, Hidex, Turku, Finland). Hearts were preserved in formalin for further characterization of plaques in the aortic root. The ex vivo biodistribution results were expressed as a percentage of the injected radioactivity dose per gram of tissue (%IA/g). The radioactivity remaining in the tail was compensated for. […] Mice (n = 5) then received an injection of [^68Ga]DOTA-Siglec-9 (22 ± 9 MBq) and were then subjected to subsequent ex vivo biodistribution and autoradiography analyses.

VAP-1 [3] = target: T1, VAP-1; experiment: in vivo; set-up: species or system mouse (LDLR−/−ApoB100/100; C57BL/6N); settings: mouse
Description: as §1

VAP-1 [4] = settings: mouse VAP-1; cited from earlier work
Source text: (§2) The adhesive function of VAP-1 can be inhibited by […]. Inhibiting VAP-1 reduces the migration of lymphocytes, granulocytes, and monocytes into inflamed tissues; it also reduces pathological angiogenesis in many animal models by abrogating monocyte/macrophage infiltration.

[5] = test system: broad panel of receptors and enzymes, including monoamine oxidases A and B; settings: cited from earlier work
Source text: as §2

VAP-1 [6] = target: T1, VAP-1; experiment: 4-week VAP-1 inhibitor treatment: plaque macrophages and intima-to-media ratio; type: in vivo, mouse (LDLR−/−ApoB100/100)
Description: (§3) The second phase examined the role of VAP-1 in atherosclerotic plaques. Twenty-five LDLR^−/−ApoB^100/100 mice were treated with a VAP-1 inhibitor (LJP1586, Z-3-fluoro-2-(4-methoxybenzyl)allylamine hydrochloride; a kind gift from M. Linnik, La Jolla Pharmaceuticals, San Diego, CA, USA), or with saline. At the age of 2 months, mice were shifted to a high-fat diet for 2 months prior to the start of 4-week treatment, during which they were on normal chow. All mice were housed in an animal facility under standard conditions (12 h light/dark cycle) and allowed access to food and water ad libitum.
(§4) During the 4 week treatment period, LDLR^−/−ApoB^100/100 mice received thrice-weekly intraperitoneal (i.p.) injections of a small molecular VAP-1 inhibitor, LJP1586 (Z-3-fluoro-2-(4-methoxybenzyl)allylamine hydrochloride; 0.5 mg/mL diluted in PBS; a kind gift from M. Linnik, La Jolla Pharmaceuticals, San Diego, CA, USA) at a dose of 5 mg/kg. Mice injected with the physiological saline alone (200 μL) served as negative controls. After treatment, all mice were sacrificed and the hearts were collected, formalin-fixed, and paraffin-embedded. Tissues were then cut transversely into 5 μm sections at the level of the coronary ostia. The areas of intima and media were outlined in sections stained with Movat’s pentachrome, and the intima-to-media ratio for each mouse was determined with ImageJ as described previously. Adjacent sections were stained with an anti-mouse Mac-3 antibody to detect activated macrophages in the intima as described above. Sections of aortic ostium were used to determine the area of plaque occupied by macrophages in each mouse because the ostium is easily located due to the presence of valves; it is therefore the most reliable place to compare plaque deposition in individual mice.

[7] = Body weight and plasma lipids after 4-week VAP-1 inhibitor treatment; type: in vivo, mouse (LDLR−/−ApoB100/100); settings: mean ± SD
Description: as §3
as §4, with “Sections of aortic ostium were used to determine the area of plaque occupied by macrophages in each mouse because the ostium is easily located due to the presence of valves; it is therefore the most reliable place to compare plaque deposition in individual mice.” left out
Total cholesterol (CHOD-PAP 1489232 kit; Roche Diagnostics GmbH, Mannheim, Germany), choline-containing phospholipids (990–54009; Wako Chemicals GmbH, Neuss, Germany and/or Diagnostic Systems, Holzheim, Germany), and triglycerides (GPO-PAP 1488872 kit; Roche Diagnostics GmbH) were measured using fully enzymatic methods.

SMILES | Plaque-to-adventitia ratio (autoradiography) (VAP-1 [1]) [P < 0.0001] | Plaque-to-wall ratio (autoradiography) (VAP-1 [1]) [P < 0.0001] | tissue uptake at 25 min (VAP-1 [2]; C57BL/6N, mouse, iv, uptake by the whole aorta) [%ID/g] | tissue uptake at 25 min (VAP-1 [2]; LDLR−/−ApoB100/100, mouse, iv, radioactivity concentration in the blood) [%ID/g] | tissue uptake at 25 min (VAP-1 [2]; LDLR−/−ApoB100/100, mouse, iv, uptake by the whole aorta) [%ID/g] | tissue uptake at 25 min (VAP-1 [2]; LDLR−/−ApoB100/100, mouse, radioactivity concentration in the blood with competition) [%ID/g] | tissue uptake at 25 min (VAP-1 [2]; LDLR−/−ApoB100/100, mouse, uptake by the whole aorta with competition) [%ID/g] | aorta-to-blood ratio on prolonging the accumulation time-point to 90 min (VAP-1 [3]) | aorta-to-muscle ratio (VAP-1 [3]) | aorta-to-muscle ratio with competition (VAP-1 [3]) | IC50 (VAP-1 [4]) [nM] | selectivity for VAP-1 [5] | reduction of Mac-3-positive macrophages in atherosclerotic plaques compared with the saline group (VAP-1 [6]; LJP1586 5 mg/kg i.p. thrice weekly for 4 weeks, P < 0.0001) [%] | intima-media ratio (plaque size) (VAP-1 [6]; LJP1586 5 mg/kg i.p. thrice weekly for 4 weeks, n = 15, aortic ostium, mean ± SD (saline 1.5 ± 0.6; P = 0.15)) | areal percentage of the aortic plaque occupied by Mac-3-positive macrophages (VAP-1 [6]; LJP1586 5 mg/kg i.p. thrice weekly for 4 weeks, n = 15, aortic ostium, mean ± SD (saline 15% ± 5.1%)) | effect on plaque size, as determined by the intima-media ratio (VAP-1 [6]; LJP1586 for 4 weeks vs saline) | Body weight ([7]; LJP1586-treated LDLR−/−ApoB100/100 mice (n = 15), P = 0.065 vs saline) [g] | Weight, female ([7]; LJP1586 group, female LDLR−/−ApoB100/100 mice (n = 8)) [g] | Weight, male ([7]; LJP1586 group, male LDLR−/−ApoB100/100 mice (n = 7)) [g]
CC(C)C[C@@H]1NC(=O)CNC(=O)[C@H](CCCNC(=N)N)NC(=O)[C@H](Cc2c[nH]c3ccccc23)NC(=O)[C@H](CO)NC(=O)[C@H](CC(C)C)NC(=O)[C@H](CO)NC(=O)[C@H](CC(C)C)NC(=O)[C@H](CCCNC(=N)N)NC(=O)[C@H](C)NC(=O)[C@@H](NC(=O)COCCOCCNC(=O)CN2CCN(CC(=O)O)CCN(CC(=O)O)CCN(CC(=O)O)CC2)CSSC[C@@H](C(=O)N2CCC[C@H]2C(=O)N[C@@H](CO)C(=O)N[C@@H](CCCCN)C(=O)O)NC(=O)[C@H](CC(C)C)NC(=O)[C@H]([C@@H](C)O)NC1=O [[^68Ga]DOTA-Siglec-9, metal not drawn] ({DOTA-AEEA}-CARLSLSWRGLTLCPSK-OH; disulfide 1-14) | 1.8 ± 0.35 | 2.1 ± 0.43 | 0.46 ± 0.1 | 3 ± 1.3 | 0.83 ± 0.33 | 2.6 ± 0.9 | 0.48 ± 0.066 | did not improve | 1.7 ± 0.59 | 1.1 ± 0.38 |  |  |  |  |  |  |  |  | 
COc1ccc(C/C(=C/F)CN)cc1.Cl [LJP1586, Z-3-fluoro-2-(4-methoxybenzyl)allylamine hydrochloride] |  |  |  |  |  |  |  |  |  |  | 4 | has been confirmed | 46 | 1.9 ± 0.8 | 8.2% ± 3.5% | no effect | 28 ± 4.5 | 25 ± 1.9 | 33 ± 1.7
